Results: PMC2185789 (The Journal of Experimental Medicine, 1980)

Target: C5b-8 complex (human, UniProt P01031 752-1676; P01031 19-673; P13671 22-934; P10643 23-843; P07357 31-584; …)
Assay: negative-stain electron microscopy

- binding result: binds
B1: C9 (natural protein)
chain: not shown
